Here are results for 150 variants from publication PMC11480844 (2024).

Sequences and labels used below:
B1: H2-Kb / B15 (parent complex)
chain 1: QQQVRQSPQSLTVWEGETAILNCSYENSAFDYFPWYQQFPGEGPALLISILSVSDKKEDGRFTIFFNKREKKLSLHIADSQPGDSATYFCAASAASNNRLTLGKGTQVVVLP
chain 2: DSGVVQSPRHIIKEKGGRSVLTCIPISGHSNVVWYQQTLGKELKFLIQHYEKVERDKGFLPSRFSVQQFDDYHSEMNMSALELEDSAMYFCASSRRADAEQFFGPGTRLTVL
chain 3: not shown
chain 4: IQKTPQIQVYSRHPPENGKPNILNCYVTQFHPPHIEIQMLKNGKKIPKVEMSDMSFSKDWSFYILAHTEFTPTETDTYACRVKHDSMAEPKTVYWDRDM
chain 5: SIINFEKL
B2: H2-Kb / Ed46 (parent complex)
chain 1: AQSVTQPDARVTVSEGASLQLRCKYSYFGTPYLFWYVQYPRQGLQLLLKYYPGDPVVQGVNGFEAEFSKSNSSFHLRKASVHWSDWAVYFCAVGRTGGYKVVFGSGTRLLVSP
chain 2: DSGVVQSPRHIIKEKGGRSVLTCIPISGHSNVVWYQQTLGKELKFLIQHYEKVERDKGFLPSRFSVQQFDDYHSEMNMSALELEDSAMYFCASSPRHSDYTFGSGTRLLVI
chain 3: not shown
chain 4: B1 chain 4
chain 5: SIINFEKL
Note: test concentration or dose not given here.

The variants in the first assay derive from B1. The assay can be described thus: % of reporter cells activated (NFAT-GFP), raw.
In the case of chain 5 N4H, the ratio to parent was determined as 0.089.

Turning to chain 5 N4S, the ratio to parent was 0.0135.

chain 5 N4K: the ratio to parent turned out to be 0.21.

Consider chain 5 N4Q, for which the ratio to parent turned out to be 0.0132.

As for chain 5 N4I, the ratio to parent amounted to 0.194.

Regarding chain 5 N4F, the ratio to parent came to 0.202.

In the case of chain 5 N4V, the ratio to parent was found to be 0.028.

Take chain 5 N4E: the ratio to parent came out at 0.26.

As to chain 5 L8Q, the ratio to parent was found to be 0.784.

With chain 5 L8R, the ratio to parent was found to be 0.904.

With chain 5 L8G, the ratio to parent was found to be 0.75.

On to chain 5 K7P, for which the ratio to parent is 0.377.

chain 5 K7A: the ratio to parent came out at 0.359.

As to chain 5 K7C, the ratio to parent is 0.0553.

Consider chain 5 K7N, for which the ratio to parent worked out at 0.27.

Consider chain 5 I2M, for which the ratio to parent is 0.89.

On to chain 5 I2E, for which the ratio to parent is 0.915.

Regarding chain 5 I2T, the ratio to parent stood at 1.02.

Take chain 5 I2F: the ratio to parent was 0.882.

For chain 5 I2W, the ratio to parent stood at 0.811.

In the case of chain 5 I3Q, the ratio to parent worked out at 0.743.

For the variant chain 5 I3S, the ratio to parent turned out to be 0.601.

Regarding chain 5 I3A, the ratio to parent stood at 0.5.

Take chain 5 I3N: the ratio to parent was found to be 0.0985.

With chain 5 I3D, the ratio to parent is 0.503.

For chain 5 I3P, the ratio to parent stood at 0.982.

chain 5 E6D: the ratio to parent worked out at 0.956.

On to chain 5 E6N, for which the ratio to parent was 0.195.

As to chain 5 E6H, the ratio to parent was 0.241.

Take chain 5 E6L: the ratio to parent amounted to 0.0519.

On to chain 5 F5C, for which the ratio to parent stood at 0.834.

As to chain 5 F5L, the ratio to parent was 0.775.

Consider chain 5 F5S, for which the ratio to parent was 0.969.

Turning to chain 5 F5M, the ratio to parent was found to be 0.836.

With chain 5 F5I, the ratio to parent was 0.818.

In the case of chain 5 F5K, the ratio to parent turned out to be 0.698.

For chain 5 F5P, the ratio to parent is 0.829.

On to chain 5 F5G, for which the ratio to parent is 0.792.

chain 5 S1D: the ratio to parent turned out to be 0.898.

Turning to chain 5 S1F, the ratio to parent was 0.144.

For the variant chain 5 S1Q, the ratio to parent came to 0.961.

For the variant chain 5 S1N, the ratio to parent was 0.416.

chain 5 S1T: the ratio to parent is 0.487.

As for chain 5 S1R, the ratio to parent was 1.03.

Consider chain 5 S1M, for which the ratio to parent was 0.601.

In the case of chain 5 S1Y, the ratio to parent worked out at 0.727.

chain 5 S1H: the ratio to parent turned out to be 0.517.

The variants in the next assay derive from B2. The assay is described as follows: % of reporter cells activated (NFAT-GFP), raw.
Regarding chain 5 I2H, the ratio to parent came to 0.785.

For the variant chain 5 I2E, the ratio to parent is 1.11.

In the case of chain 5 I2P, the ratio to parent amounted to 1.23.

As to chain 5 I2L, the ratio to parent is 1.38.

Take chain 5 I2V: the ratio to parent worked out at 1.4.

For the variant chain 5 I2Q, the ratio to parent stood at 0.775.

As for chain 5 I2C, the ratio to parent came to 1.26.

chain 5 I2W: the ratio to parent turned out to be 0.693.

In the case of chain 5 I2D, the ratio to parent was 1.37.

On to chain 5 I2G, for which the ratio to parent was 1.2.

For the variant chain 5 I2S, the ratio to parent came to 1.4.

chain 5 I2M: the ratio to parent amounted to 1.17.

As to chain 5 I2K, the ratio to parent worked out at 1.12.

Consider chain 5 L8N, for which the ratio to parent worked out at 0.697.

Take chain 5 L8M: the ratio to parent stood at 1.08.

With chain 5 L8T, the ratio to parent was determined as 1.01.

Turning to chain 5 L8S, the ratio to parent turned out to be 0.783.

On to chain 5 L8R, for which the ratio to parent is 0.918.

In the case of chain 5 L8W, the ratio to parent was found to be 0.918.

Take chain 5 L8P: the ratio to parent is 0.718.

For the variant chain 5 L8F, the ratio to parent came to 1.06.

In the case of chain 5 L8D, the ratio to parent was 0.618.

In the case of chain 5 L8E, the ratio to parent is 0.691.

As for chain 5 L8Q, the ratio to parent was 0.977.

As to chain 5 L8G, the ratio to parent turned out to be 0.703.

Take chain 5 L8V: the ratio to parent came to 0.886.

In the case of chain 5 L8H, the ratio to parent was 0.912.

As to chain 5 S1E, the ratio to parent came out at 0.174.

On to chain 5 S1F, for which the ratio to parent is 0.018.

For chain 5 S1R, the ratio to parent turned out to be 0.223.

chain 5 S1M: the ratio to parent turned out to be 0.235.

With chain 5 S1Q, the ratio to parent was found to be 0.0873.

As to chain 5 S1Y, the ratio to parent was 0.795.

For chain 5 S1K, the ratio to parent is 0.328.

For the variant chain 5 S1I, the ratio to parent is 0.0213.

Turning to chain 5 S1D, the ratio to parent was determined as 0.675.

As for chain 5 S1G, the ratio to parent turned out to be 0.39.

As to chain 5 S1L, the ratio to parent amounted to 0.0092.

On to chain 5 S1W, for which the ratio to parent came out at 0.151.

Regarding chain 5 I3S, the ratio to parent was determined as 1.06.

Take chain 5 I3L: the ratio to parent was 1.05.

With chain 5 I3N, the ratio to parent was determined as 0.34.

With chain 5 I3F, the ratio to parent came out at 0.726.

Take chain 5 I3V: the ratio to parent is 0.724.

For the variant chain 5 I3Q, the ratio to parent turned out to be 0.383.

chain 5 I3P: the ratio to parent is 0.669.

chain 5 I3W: the ratio to parent came out at 0.64.

For the variant chain 5 I3C, the ratio to parent was 0.689.

Consider chain 5 I3A, for which the ratio to parent was determined as 0.139.

Take chain 5 I3T: the ratio to parent worked out at 0.301.

Consider chain 5 F5V, for which the ratio to parent was 1.05.

As for chain 5 F5G, the ratio to parent was found to be 0.916.

In the case of chain 5 F5D, the ratio to parent was determined as 0.591.

With chain 5 F5T, the ratio to parent turned out to be 1.38.

Regarding chain 5 F5W, the ratio to parent amounted to 1.2.

Consider chain 5 F5Q, for which the ratio to parent stood at 0.757.

For chain 5 F5I, the ratio to parent stood at 1.02.

On to chain 5 F5N, for which the ratio to parent is 0.955.

With chain 5 F5Y, the ratio to parent amounted to 1.3.

For chain 5 F5K, the ratio to parent came to 0.845.

Turning to chain 5 F5E, the ratio to parent was 0.65.

Take chain 5 F5A: the ratio to parent came out at 1.01.

In the case of chain 5 F5H, the ratio to parent came to 1.23.

Regarding chain 5 F5P, the ratio to parent was 1.17.

Regarding chain 5 N4V, the ratio to parent was 0.00323.

For the variant chain 5 N4A, the ratio to parent turned out to be 0.0038.

In the case of chain 5 N4H, the ratio to parent was 0.036.

Take chain 5 N4F: the ratio to parent came to 0.0192.

As for chain 5 N4Q, the ratio to parent turned out to be 0.00528.

With chain 5 N4D, the ratio to parent came to 0.009.

With chain 5 N4G, the ratio to parent turned out to be 0.00595.

For the variant chain 5 N4E, the ratio to parent stood at 0.0143.

As to chain 5 N4S, the ratio to parent was determined as 0.00601.

On to chain 5 N4C, for which the ratio to parent was determined as 0.0356.

Consider chain 5 N4I, for which the ratio to parent stood at 0.0714.

In the case of chain 5 E6D, the ratio to parent worked out at 1.02.

Take chain 5 E6G: the ratio to parent was 0.355.

As for chain 5 E6H, the ratio to parent came out at 0.25.

chain 5 E6Y: the ratio to parent is 0.119.

As to chain 5 E6S, the ratio to parent turned out to be 0.249.

With chain 5 E6F, the ratio to parent came out at 0.0998.

As for chain 5 E6R, the ratio to parent was found to be 0.632.

chain 5 E6V: the ratio to parent turned out to be 0.0112.

Consider chain 5 E6M, for which the ratio to parent was found to be 0.398.

chain 5 E6Q: the ratio to parent is 0.475.

As for chain 5 E6C, the ratio to parent amounted to 0.0448.

With chain 5 E6T, the ratio to parent turned out to be 0.0683.

In the case of chain 5 E6K, the ratio to parent was 0.746.

As for chain 5 E6N, the ratio to parent was 0.464.

For the variant chain 5 E6P, the ratio to parent turned out to be 0.329.

Take chain 5 E6I: the ratio to parent came to 0.0119.

Turning to chain 5 K7Y, the ratio to parent worked out at 0.446.

As for chain 5 K7V, the ratio to parent was 0.353.

As for chain 5 K7H, the ratio to parent amounted to 0.74.

Turning to chain 5 K7G, the ratio to parent amounted to 0.341.

For chain 5 K7M, the ratio to parent worked out at 0.0863.

chain 5 K7A: the ratio to parent came out at 0.383.

For the variant chain 5 K7P, the ratio to parent came to 0.349.

Take chain 5 K7T: the ratio to parent came out at 0.291.

chain 5 K7R: the ratio to parent was 0.814.

As to chain 5 K7D, the ratio to parent was found to be 0.0219.

In the case of chain 5 K7S, the ratio to parent is 0.689.

chain 5 K7F: the ratio to parent stood at 0.0438.
